Assay results: paper PMC8591604 (2021)
[ ]: non-standard residue; d: D form. pY = N[C@@H](Cc1ccc(OP(=O)(O)O)cc1)C(=O)O

B1: P8E4W5, P8 analogue with E at position +4 and W at position +5 (peptide)
chain: Ac-LN[pY]IDLEW-NH2
SMILES: CC[C@H](C)[C@H](NC(=O)[C@H](Cc1ccc(OP(=O)(O)O)cc1)NC(=O)[C@H](CC(N)=O)NC(=O)[C@H](CC(C)C)NC(C)=O)C(=O)N[C@@H](CC(=O)O)C(=O)N[C@@H](CC(C)C)C(=O)N[C@@H](CCC(=O)O)C(=O)N[C@@H](Cc1c[nH]c2ccccc12)C(N)=O
B2: P8F5, P8 analogue with F at position +5 (peptide)
chain: Ac-LN[pY]IDLDF-NH2
SMILES: CC[C@H](C)[C@H](NC(=O)[C@H](Cc1ccc(OP(=O)(O)O)cc1)NC(=O)[C@H](CC(N)=O)NC(=O)[C@H](CC(C)C)NC(C)=O)C(=O)N[C@@H](CC(=O)O)C(=O)N[C@@H](CC(C)C)C(=O)N[C@@H](CC(=O)O)C(=O)N[C@@H](Cc1ccccc1)C(N)=O
B3: P8, unlabeled IRS-1 pY1172 peptide, residues −2 to +5 (peptide)
peptide: Ac-LN[pY]IDLDL-NH2
SMILES: CC[C@H](C)[C@H](NC(=O)[C@H](Cc1ccc(OP(=O)(O)O)cc1)NC(=O)[C@H](CC(N)=O)NC(=O)[C@H](CC(C)C)NC(C)=O)C(=O)N[C@@H](CC(=O)O)C(=O)N[C@@H](CC(C)C)C(=O)N[C@@H](CC(=O)O)C(=O)N[C@@H](CC(C)C)C(N)=O

Legend:
[1] = molecular target: T1, N-SH2 domain of SHP2 (residues 2–111) (human, UniProt Q06124 2-111); assay: FP
T1 chain: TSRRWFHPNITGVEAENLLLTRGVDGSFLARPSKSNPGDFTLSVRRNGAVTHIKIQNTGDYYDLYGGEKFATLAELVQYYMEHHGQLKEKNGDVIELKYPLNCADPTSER

[2] = molecular target: T1, N-SH2 domain of SHP2 (residues 2–111); assay: FP
[3] = molecular target: T1, N-SH2 domain of SHP2 (residues 2–111); assay: FP; displacement of CF-P9W5
[4] = molecular target: T1, N-SH2 domain of SHP2 (residues 2–111); assay: FP; displacement of CF-P9W5

Binder	EC50 [1] [nM]	Kd [2] [nM]	EC50 [3] [nM]	Kd [4] [nM]
B1	11	4		
Ac-LN[pY]IDLDW-NH2 [P8W5, P8 analogue with W at position +5]	5.4			
B2	16	7		
B3			47	22
